Results: IntAct's records for PubMed 15028672

Molecular target: crx_bovin CRX (UniProt Q9XSK0)
Sequence (Q9XSK0 whole entry): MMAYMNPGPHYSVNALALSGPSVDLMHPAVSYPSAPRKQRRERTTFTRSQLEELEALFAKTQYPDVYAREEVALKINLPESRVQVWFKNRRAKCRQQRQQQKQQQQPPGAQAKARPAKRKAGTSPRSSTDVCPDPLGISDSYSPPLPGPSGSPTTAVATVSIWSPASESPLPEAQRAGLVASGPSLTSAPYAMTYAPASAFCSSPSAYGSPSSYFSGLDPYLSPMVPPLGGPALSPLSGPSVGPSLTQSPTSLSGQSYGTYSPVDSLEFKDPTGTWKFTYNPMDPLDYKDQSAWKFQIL

Sequence of Retina and anterior neural fold homeobox protein 2 (Bos taurus (Bovine)), Q7YRX0 G137R (Q7YRX0 whole entry G137R): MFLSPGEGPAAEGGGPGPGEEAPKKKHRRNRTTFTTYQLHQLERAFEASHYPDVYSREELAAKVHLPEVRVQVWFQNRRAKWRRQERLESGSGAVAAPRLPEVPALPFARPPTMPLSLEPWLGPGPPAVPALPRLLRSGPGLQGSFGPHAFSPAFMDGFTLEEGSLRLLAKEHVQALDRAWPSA

For “Retina and anterior neural fold homeobox protein 2 (Bos taurus (Bovine)), Q7YRX0 G137R”, the “effect of a mutation on the interaction” value was “decreasing interaction”.
